This experiment deals with SARS-CoV-1 RBD (RBD-1) (SARS-CoV-1). The experiment in a line: ELISA. To be noted: remark: other sources report otherwise.

B1: L12.bP11A06 (antibody, V domains shown)
VH: EVQLVESGGGLIQPGGSLRLSCAASGLTVSSNYMSWVRQAPGKGLEWVSVIYSGGSTFYADSVKGRFTISRDNSKNTLYLQMNSLRAEDTAVYYCARDLDVYGLDVWGQGTTVTVSS
VL: DIVMTQSPSFLSASVGDRVTITCRASQGISSYLAWYQQKPGKAPKLLIYAASTLQSGVPSRFSGSGSGTEFTLTISSLQPEDFATYYCQQLNSYPPKFTFGPGTKVEIK
Molecule B1 registered an EC50 of more than 50 µg/mL.

The values above are taken from patent US20230357364A1.
